Data taken from patent US20160168212A1 (RAMOT AT TEL AVIV UNIVERSITY, published 2016).

Target: α-synuclein (recombinant, monomeric fraction) (UniProt P37840 1-140)
Assay: fluorescence anisotropy; α-syn monomers titrated into the Trp-containing peptide
Procedure: The solution was immediately mixed with α-syn monomer stock solution to varying final concentrations. The peptide polarization measurements were carried out using an ISS K2 fluorometer. The solutions were excited at 280 nm and emission was monitored at 350 nm. For each single point, at least five measurements were collected and their average values were used for the calculation. All experiments were performed using ultra pure water.

B1: β-syn 36 in which tyrosine was substituted with tryptophan (peptide)
peptide: GVLWVGSKTR
notes: also called β-syn 36 containing Tryptophan instead of Tyrosine
  Kd: ~1 µM
